Assay results as given in publication PMC4140852 (PLoS Pathogens, 2014).

Biological target: the molecule itself
Assay: cross-linking

Protein | stoichiometry N
rAPRc_(99–231), intermediate of activation of RC1339/APRc (Aspartic Protease from Rickettsia conorii) soluble catalytic domain, C-terminal His-tag (domain or fragment, also called rAPRc99–231-His; APRc_(99–231)His; not shown: His6, C-terminal, kept) SALIPSYKWSTEVGEIIIARNRDGHFYINAFVNNVKIKFMVDTGASDIALTKEDAQKLGFDLTKLKYTRTYLTANGENKAAPITLNSVVIGKEFKNIKGHVGLGDLDISLLGMSLLERFKGFRIDKDLLILNY | 2
rAPRc_(105–231), activation product derived from rAPRc_(99–231) by auto-processing (enzyme) YKWSTEVGEIIIARNRDGHFYINAFVNNVKIKFMVDTGASDIALTKEDAQKLGFDLTKLKYTRTYLTANGENKAAPITLNSVVIGKEFKNIKGHVGLGDLDISLLGMSLLERFKGFRIDKDLLILNY | 2
